Results published in publication PMC11564776, “Enzyme stabilisation due to incorporation of a fluorinated non-natural amino acid at the protein surface” (Scientific Reports, 2024).

Target: the molecule itself
Test: SEC; Zorbax-GF250 column, 1 mL/min, 200 mM sodium phosphate pH 7.0, column at room temperature; holo-TK samples stored at 4 °C or heated 15 min at 21 °C or 50 °C; homodimer and monomer peaks combined as 'native' because dilution during SEC can cause partial dissociation to monomer

B1: wild-type E. coli transketolase (enzyme)
chain: SSRKELANAIRALSMDAVQKAKSGHPGAPMGMADIAEVLWRDFLKHNPQNPSWADRDRFVLSNGHGSMLIYSLLHLTGYDLPMEELKNFRQLHSKTPGHPEVGYTAGVETTTGPLGQGIANAVGMAIAEKTLAAQFNRPGHDIVDHYTYAFMGDGCMMEGISHEVCSLAGTLKLGKLIAFYDDNGISIDGHVEGWFTDDTAMRFEAYGWHVIRDIDGHDAASIKRAVEEARAVTDKPSLLMCKTIIGFGSPNKAGTHDSHGAPLGDAEIALTREQLGWKYAPFEIPSEIYAQWDAKEAGQAKESAWNEKFAAYAKAYPQEAAEFTRRMKGEMPSDFDAKAKEFIAKLQANPAKIASRKASQNAIEAFGPLLPEFLGGSADLAPSNLTLWSGSKAINEDAAGNYIHYGVREFGMTAIANGISLHGGFLPYTSTFLMFVEYARNAVRMAALMKQRQVMVYTHDSIGLGEDGPTHQPVEQVASLRVTPNMSTWRPCDQVESAVAWKYGVERQDGPTALILSRQNLAQQERTEEQLANIARGGYVLKDCAGQPELIFIATGSEVELAVAAYEKLTAEGVKARVVSMPSTDAFDKQDAAYRESVLPKAVTARVAVEAGIADYWYKYVGLNGAIVGMTTFGESAPAELLFEEFGFTVDNVVAKAKELL
notes: transketolase (TK) of E. coli, wild-type gene in plasmid pQR791; the introduction gives the domains as residues 1-322 (PP), 323-539 (Pyr) and 540-663 (C-terminal); Used as holo-TK with ThDP and MgCl2; also called WT TK; WT-TK; source: E. coli XL-10-Gold with plasmid pQR791, purified (Ni-NTA)
- binding result: binds
